# How the values were obtained:
# [1] = biological target: T1, MMP-9 (Homo sapiens, UniProt P14780); assay: In vitro enzymatic validation of FIB One with recombinant MMP-9 (plate reader); assay type: biochemical; conditions: MMP 30 nM, n=3 in duplicate
# T1 construct: recombinant MMPs (Enzo Life Sciences) (active domains of MMP-1, MMP-2, MMP-3, MMP-7, MMP-8, MMP-9, MMP-10, MMP-11, MMP-12, and MMP-13); purchased Enzo Life Sciences
# Description: To determine the enzymatic specificity of FIB One, the probe was incubated at a concentration of 1 μM (unless otherwise stated) with the recombinant MMPs (Enzo Life Sciences) (active domains of MMP-1, MMP-2, MMP-3, MMP-7, MMP-8, MMP-9, MMP-10, MMP-11, MMP-12, and MMP-13, all at 30 nM), thrombin (Sigma Aldrich) (5 U/mL), factor Xa (Sigma Aldrich) (500 nM), plasmin (Sigma Aldrich) (30 nM), and human neutrophil elastase (30 nM). Where appropriate, enzymes were incubated with specific inhibitors for 30 min at 37°C prior to addition of FIB One. […] Enzyme free reactions served as a control. Enzymatic reactions were performed in MMP buffer (10 mM CaCl2, 6.1 g Tris-HCl, 8.6 g NaCl per litre, pH 7.5) in a final volume of 20 μL. Reactions were performed in duplicate in 384-well plates (Life Technologies) with optically clear plate seals (Thermo Scientific) and repeated thrice (independently). Fluorescence signal was measured for up to 60 min, ex/em 485/528 nm using microplate reader (BioTek Synergy H1 multimode reader). Data were normalised to buffer alone and are presented as fold-change in signal (relative fluorescent units, RFU) compared to enzyme-free controls. Data were plotted using Prism 7 (GraphPad Software Inc., La Jolla, CA, USA).
# [2] = system: patients; assay: Laboratory results in patients after FIB One delivery; assay type: in vivo, human
# From the text: Table S1: Laboratory results. […] Statistical analysis using paired t-test. (Hb= haemoglobin; WCC= white cell count; ALT- alanine transaminase; CRP= C Reactive Protein).
# [3] = system: MMP activity in the alveolar space; assay: In-human alveolar FCFM imaging after endobronchial delivery of FIB One; assay type: in vivo; conditions: FIB One microdose <100 μg, bolus, patients with parenchymal fibrosis, n=4
# Description: All participants were scheduled for routine, clinical diagnostic flexible bronchoscopy in our institution with a known or suspected diagnosis of fibrosis or lung cancer. All eight patients had computerized tomography performed prior to bronchoscopy and regions of active disease identified for targeted investigation.
# Bronchoscopy was undertaken in an outpatient suite using local anaesthetic and conscious sedation or in theatre under general anaesthetic. FCFM was performed using a clinically approved confocal laser scanning endomicroscopy device (Cellvizio®, Mauna Kea Technologies) with a compatible imaging fibre (Alveoflex™ or Miniaturized Alveoflex™, Mauna Kea Technologies).
# In initial exploratory testing, 8 patients with either endobronchial tumour or parenchymal fibrosis underwent FIB One microdosing (<100 μg, <5 mL). […] Images were recorded for at least 30 s at 12 frames/second.
# All video sequences were assessed by two clinicians with clinical experience of pulmonary endomicroscopy. […] Videos were assessed to ensure stability throughout the imaging procedure. […] All video files were analysed using the Cellvizio® Viewer image processing software from Mauna Kea Technologies, Paris. […] The median RFU was calculated for each category and used as a comparative value between groups.
# [4] = system: patients; assay: Clinical observations in patients after procedure; assay type: in vivo, human
# From the text: Table S2: Clinical observations.
# [5] = system: Salmonella typhimurium strain TA100; assay: Reduced test article AMES test, TA100; assay type: cell-based; conditions: up to 250 μg/well, in the absence and presence of rat liver S-9
# Description: These conditions included treatments at concentrations up to 250 μg/well (a 20-fold pro rata reduction from the standard regulatory Ames assay maximum concentration), in the absence and in the presence of a rat liver metabolic activation system (S-9).
# [6] = system: stimulated human neutrophils; assay: FIB One cleavage in supernatant from stimulated neutrophils; assay type: cell-based; conditions: FIB One 1 μM, 10 min incubation with neutrophil supernatant
# Description: Neutrophils were isolated from the blood of healthy human volunteers as previously described. The number of retrieved neutrophils was determined with NucleoCounter NC-1000 (Chemo Metec). Neutrophils were resuspended at a concentration of 20×10^6 mL^-1 in 0.9% NaCl with 0.9 mM CaCl2. Cells were incubated for 30 min at 37°C. Cells to be stimulated were subsequently activated with 5 μM calcium ionophore A23187 (Tocris Bioscience) for 30 min at 37°C. Neutrophils were harvested by centrifugation at 400 x g for 5 min. Supernatants were removed and stored. Plate reader assays were performed as described above, with the MMP buffer replaced with neutrophil supernatant. All experiments were carried out in duplicate using three independent donors (one donor per independent repeat). Data were normalised by background subtraction of intrinsic fluorescence.
# T1 sequence (P14780 107-444 limits assumed): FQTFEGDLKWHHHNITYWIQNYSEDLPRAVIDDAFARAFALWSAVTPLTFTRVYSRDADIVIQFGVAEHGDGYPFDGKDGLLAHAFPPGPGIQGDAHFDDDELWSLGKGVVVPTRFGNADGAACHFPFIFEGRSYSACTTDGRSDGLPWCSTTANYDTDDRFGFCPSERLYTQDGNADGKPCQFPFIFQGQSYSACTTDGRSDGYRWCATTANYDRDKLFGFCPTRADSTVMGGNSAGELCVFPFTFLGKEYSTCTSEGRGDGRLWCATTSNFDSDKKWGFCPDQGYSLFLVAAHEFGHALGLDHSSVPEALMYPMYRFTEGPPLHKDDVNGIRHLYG
substance,measurement,setting,value
(Pro-Phe-Gly-Nle-Lys-βAla)3 [FIB One],fluorescent amplification of FIB One on exposure to enzyme,"[1]; FIB One 1 μM, MMP buffer pH 7.5, ex/em 485/528 nm, fold-change vs enzyme-free control",rapid and specific fluorescent amplification
same,signal amplification compared with analogous monomeric linear structure (FRET-monomer),"[1]; probes 1 µM, 10 min incubation",improved signal amplification
same,Potassium,"[2]; blood 4-6 hours post FIB One delivery, mean (sd), baseline 4.3 (0.4)",4.2 (0.4) mmol/L
same,Urea,"[2]; blood 4-6 hours post FIB One delivery, mean (sd), baseline 4.6 (1.3)",4.7 (1.1) mmol/L
same,CRP,"[2]; blood 4-6 hours post FIB One delivery, mean (sd), baseline 5.4 (8.1)",5.2 (8.1) mg/L
same,WCC,"[2]; blood 4-6 hours post FIB One delivery, mean (sd), baseline 7.6 (1.1), p <0.0001",10.9 (2.9) x10^9/L
same,Bilirubin,"[2]; blood 4-6 hours post FIB One delivery, mean (sd), baseline 12.5 (5.3)",12.4 (4.6) umol/L
same,ALT,"[2]; blood 4-6 hours post FIB One delivery, mean (sd), baseline 25.2 (18.2)",23.8 (15.2) IU/L
same,Creatinine,"[2]; blood 4-6 hours post FIB One delivery, mean (sd), baseline 77.5 (11.5)",77.3 (12.1) umol/L
same,Sodium,"[2]; blood 4-6 hours post FIB One delivery, mean (sd), baseline 138.9 (2.7), p 0.01",137.7 (3.2) mmol/L
same,Hb,"[2]; blood 4-6 hours post FIB One delivery, mean (sd), baseline 148.6 (11.3), p 0.0002",143 g/L
same,Platelets,"[2]; blood 4-6 hours post FIB One delivery, mean (sd), baseline 221.5 (53.2)",221.2 (52.6) x10^9/L
same,clinically significant alterations of laboratory results,[2]; pre procedure vs 4-6 hours post FIB One delivery,no clinically significant alterations
same,alveolar FCFM fluorescent signal following endobronchial delivery,[3],increased fluorescent signal
same,Respiratory Rate,"[4]; Hour 1, mean (s.d.), baseline 16 (1)",16 (2) bpm
same,Temperature,"[4]; Hour 1, mean (s.d.), baseline 36.6 (0.5)",36.4 (0.4) C
same,Heart Rate,"[4]; Hour 1, mean (s.d.), baseline 76 (13)",69 (13) bpm
same,Oxygen Saturations,"[4]; Hour 1, mean (s.d.), baseline 96 (1)",97 (2) %
same,Systolic BP,"[4]; Hour 1, mean (s.d.), baseline 142 (22)",124 (20) mmHg
same,Heart Rate,"[4]; Hour 2, mean (s.d.)",67 (18) bpm
same,Oxygen Saturations,"[4]; Hour 2, mean (s.d.)",97 (2) %
same,Respiratory Rate,"[4]; Hour 2, mean (s.d.)",17 (1) bpm
same,Systolic BP,"[4]; Hour 2, mean (s.d.)",124 (18) mmHg
same,Temperature,"[4]; Hour 2, mean (s.d.)",36.4 (0.6) C
same,Heart Rate,"[4]; Hour 3, mean (s.d.)",71 (12) bpm
same,Oxygen Saturations,"[4]; Hour 3, mean (s.d.)",96 (2) %
same,Respiratory Rate,"[4]; Hour 3, mean (s.d.)",16 (1) bpm
same,Systolic BP,"[4]; Hour 3, mean (s.d.)",122 (32) mmHg
same,Temperature,"[4]; Hour 3, mean (s.d.)",36.5 (0.4) C
same,Heart Rate,"[4]; Hour 4, mean (s.d.)",77 (14) bpm
same,Oxygen Saturations,"[4]; Hour 4, mean (s.d.)",96 (2) %
same,Respiratory Rate,"[4]; Hour 4, mean (s.d.)",16 (1) bpm
same,Systolic BP,"[4]; Hour 4, mean (s.d.)",125 (17) mmHg
same,Temperature,"[4]; Hour 4, mean (s.d.)",36.8 (0.4) C
same,clinically significant variation of clinical observations,[4]; between baseline and point of discharge from study (hour 4),no clinically significant variation
same,mutation induction,[5],did not induce mutation
same,cleavage of FIB One,[6],cleaved
